Source: US20260227403A1 (HENRY M JACKSON FOUNDATION FOR THE ADVANCEMENT OF MILITARY …, published 2026)

Experiments:
Assay in all cases: ELISA: 500 ng peptide coated per well, 29E4 at 40 ng/mL, HRP goat anti-rabbit Ig 1:16,000, ABS 450 nm, duplicates [CONT. 2]
[1] = target: T1, P23 (alanine substituted, FIG. 3 panel E)
T1 construct: also called D233 to alanine
From the text: (§1) HRP Goat anti-rabbit Ig was applied at 1:16,000 dilution in all reactions.
(§2) Peptides were synthesized to achieve ≥70% HPLC purity by a commercial vendor (GenScript Biotech, Piscataway, NJ). Peptides were reconstituted in either water, or with addition of acetonitrile, methanol, 10% acetic acid, or DMSO, depending on the overall charge of each peptide. Key residues required for mAb binding were probed by ELISA using overlapping peptides, truncated peptides and alanine substituted peptides. Reactions were performed in duplicate using NUNC 96-well flatbottom MaxiSorp plates (Thermo Scientific). After coating each well with 500 ng of peptide in 100 μL coating buffer (50 mM NaHCO₃, pH 9.6), the plates were sealed and incubated at 4° C. overnight. […] Plates were then washed once with wash buffer, incubated with 100 μL mAb 29E4 (serially diluted from 1 mg/mL) for 1 hour at 37° C. Plates were further washed four times with wash buffer, and then incubated at 37° C. with 100 μL of a horse radish peroxidase (HRP)-conjugated secondary antibody against the primary antibody, diluted 1:16,000 according to manufacturer's protocols (KPL, Inc., Gaithersburg, MD). After washing four times with wash buffer, 100 μL of K-Blue Aqueous TMB substrate (Neogen, Lexington, KY) was added to the plates and incubated uncovered for 30 minutes at room temperature. To stop the reaction, 100 μL of 2 N Sulphuric acid was added to each well and absorbance were measured immediately at 450 nm. All dilutions of reagents were performed in ELISA diluent (20% NGS in 1×PBS with 0.1% Triton-X 100).

[2] = target: T2, P11 (alanine substituted, FIG. 3 panel E)
T2 construct: also called P221 to alanine
T2 sequence (peptide, as listed by the source): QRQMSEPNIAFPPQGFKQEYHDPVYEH
From the text: as §1, §2

[3] = target: T3, P4 (alanine substituted, FIG. 3 panel E)
T3 construct: not the overlapping peptide P4 of panel A; also called Q214 to alanine
T3 sequence (peptide, as listed by the source): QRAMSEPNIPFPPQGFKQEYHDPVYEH
From the text: as §1, §2

[4] = target: T4, P18 (alanine substituted, FIG. 3 panel E)
T4 construct: also called K228 to alanine
T4 sequence (peptide, as listed by the source): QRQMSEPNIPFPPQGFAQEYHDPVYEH
From the text: as §1, §2

[5] = target: T5, P24 (alanine substituted, FIG. 3 panel E)
T5 construct: also called P234 to alanine
T5 sequence (peptide, as listed by the source): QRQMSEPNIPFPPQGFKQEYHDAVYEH
From the text: as §1, §2

[6] = target: T6, P7 (alanine substituted, FIG. 3 panel E)
T6 construct: not the overlapping peptide P7 of panels A and C; also called E217 to alanine
T6 sequence (peptide, as listed by the source): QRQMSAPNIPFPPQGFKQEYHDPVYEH
From the text: as §1, §2

[7] = target: T7, alanine substituted peptide with P223 replaced by alanine (P13 of FIG. 3 panel E) (human)
T7 construct: The text names only the residue P223
T7 sequence (peptide, as listed by the source): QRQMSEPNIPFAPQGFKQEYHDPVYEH
From the text: as §1, §2

[8] = target: T8, alanine substituted peptide P12 (F222 to alanine) (human)
T8 construct: The entry already carries the substitution
T8 sequence (peptide, as listed by the source): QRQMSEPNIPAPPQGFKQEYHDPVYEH
From the text: as §1, §2

[9] = target: T9, P28 (alanine substituted, FIG. 3 panel E)
T9 construct: also called H238 to alanine
T9 sequence (peptide, as listed by the source): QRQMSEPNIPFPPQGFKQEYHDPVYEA
From the text: as §1, §2

[10] = target: T10, P10 (alanine substituted, FIG. 3 panel E)
T10 construct: also called I220 to alanine
T10 sequence (peptide, as listed by the source): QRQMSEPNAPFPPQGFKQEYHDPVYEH
From the text: as §1, §2

[11] = target: T11, P3 (alanine substituted, FIG. 3 panel E)
T11 construct: not the overlapping peptide P3 of panel A; also called R213 to alanine
T11 sequence (peptide, as listed by the source): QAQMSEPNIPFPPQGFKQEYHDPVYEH
From the text: as §1, §2

[12] = target: T12, P9 (alanine substituted, FIG. 3 panel E)
T12 construct: also called N219 to alanine
T12 sequence (peptide, as listed by the source): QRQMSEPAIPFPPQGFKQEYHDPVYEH
From the text: as §1, §2

[13] = target: T13, P6 (alanine substituted, FIG. 3 panel E)
T13 construct: not the overlapping peptide P6 of panel A; also called S216 to alanine
T13 sequence (peptide, as listed by the source): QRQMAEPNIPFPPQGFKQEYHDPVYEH
From the text: as §1, §2

[14] = target: T14, P8 (alanine substituted, FIG. 3 panel E)
T14 construct: also called P218 to alanine
T14 sequence (peptide, as listed by the source): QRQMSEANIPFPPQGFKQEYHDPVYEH
From the text: as §1, §2

[15] = target: T15, P22 (alanine substituted, FIG. 3 panel E)
T15 construct: also called H232 to alanine
T15 sequence (peptide, as listed by the source): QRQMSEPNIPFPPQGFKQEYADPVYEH
From the text: as §1, §2

T1 sequence (peptide, as listed by the source): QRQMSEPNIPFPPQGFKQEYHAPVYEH

B1: ETV1 rabbit monoclonal antibody (29E4) (antibody, V domains shown)
VH: QELEESGGDLVKPGASLTLTCTASGFFFSAENHICWVRQAPGKGLEWIGCVYIGSYVGGSGDPYYASWAKGRFTISKTSSTTVTLQMSSLTAADTATYFCARDLGSLWGPGTLVTVSS
VL: DVVMTQTASSVSAAVGGTVTIACQSSQSVYDNNNLAWFQQKPGQPPKRLIYSASTLASGVSSRFKGSGYGTQFTLTISDVQCDDAATYYCVGAFSGYIFVFGGGTEVVVK
notes: constant regions are not; also called 29E4 mAb; ETV1 29E4 mAb
Q: Does B1 bind [1]?
A: binds

Q: Does B1 bind [2]?
A: binds

Q: Does B1 bind [3]?
A: binds

Q: Does B1 bind [4]?
A: binds

Q: Does B1 bind [5]?
A: binds

Q: Does B1 bind [6]?
A: binds

Q: Does B1 bind [7]?
A: binds

Q: Does B1 bind [8]?
A: no binding (tested: 40 ng/mL)

Q: Does B1 bind [9]?
A: binds

Q: Does B1 bind [10]?
A: binds

Q: Does B1 bind [11]?
A: binds

Q: Does B1 bind [12]?
A: binds

Q: Does B1 bind [13]?
A: binds

Q: Does B1 bind [14]?
A: binds

Q: Does B1 bind [15]?
A: binds
